From patent US6060513A, “Compounds and compositions for delivering active agents” (Emisphere Technologies, Inc., priority 1997, dated 2000)

Test: In Vivo Interferon Delivery (ELISA for human interferon)
Parameters: species or system Rats
Details: 1 mg/kg interferon, no carrier

interferon
Mean peak serum interferon concentration (IC): 79±100
Mean peak serum interferon concentration (PO): 1951±1857
